Reference: US6133008

Test system: TfiI-s (N-terminally shortened TfiI) lacks first 12 amino acids; translation presumed to start at TTG codon (Thermus filiformis)
Assay: cleavage_in_vitro
Details: cell lysate; lambda DNA substrate

Question: lambda DNA was tested. Which activity (units/g wet cells) did it give?
Answer: The activity (units/g wet cells) was 100000.
